Measured values taken from the MegaScale stability set (Tsuboyama et al. 2023).

B1: HEEH_KT_rd6_0790 (parent)
chain: SEEEEEEWRRAKERGEEIIILGILWKPNDEEAERRIKEALRRV
B2: r16_88_TrROS_Hall (parent)
chain: EVIELKIKFKTPEQREKLKEIAKKLNAEVVEEKDGEVIIRFKTPEQAERALKEAEKLGAEVEL

Variants of: B1
Experiment: folding stability dG (cDNA display proteolysis); higher = more stable
Conditions: PBS, room temperature

Folding stability dG [kcal/mol], by site and new letter:
I36: Q 0.909, N 0.613, S 0.815, W 1.32, E 0.641, R 0.952, F 1.5, L 1.49, D 0.894, H 0.809, A 1.11, Y 1.02, G 1.03, T 1.06, K 0.876, P 0.142, V 2.01, M 1.39
A39: S 1.26, K 1.79, Q 1.6, E 1.53, N 1.01, I 1.81, V 1.6, L 2.06, T 1.31, G 1.32, C 2.06, W 1.7, M 2.1, D 0.764, Y 1.56, H 1.38, R 1.88, F 1.69, P 0.322
E38: S 1.67, R 1.52, F 1.03, G 1.46, A 1.94, W 1.02, Y 0.909, P 1.11, M 1.47, D 2.06, V 1.46, K 1.34, Q 1.93, I 1.91, L 1.39, N 1.61, T 1.41, H 1.39
R42: V 1.95, Q 2.09, F 1.77, H 1.79, C 1.95, W 1.74, P 1.33, T 1.83, D 1.56, N 1.84, A 2.11, L 2.09, I 2, K 2.14, G 1.88, S 1.92, Y 1.77, E 1.75, M 1.98
L40: T 0.781, Y 1.1, N 0.57, D 0.532, S 0.788, K 1.06, C 1.55, Q 1, A 1.12, P 0.583, M 1.76, W 1.45, R 1.2, E 0.814, H 1.26, G 0.586, I 1.97, V 1.25, F 1.78
R34: P 0.726, L 2.06, T 1.9, M 2.12, V 1.87, K 2.06, S 2.02, I 1.77, N 2, W 1.92, Q 2.14, Y 1.87
R35: A 2.21, L 2.19, K 2.09, P 0.078, H 1.61, S 1.71, F 1.38, Q 2.14, Y 1.18, G 1.32, D 1.49, I 1.66, E 1.68, T 1.5, V 1.48, M 2.2, N 1.62, W 1.56
R41: M 1.9, C 2.43, Y 1.74, G 1.74, P 0.888, Q 1.92, I 1.76, F 1.76, A 2.07, H 1.88, V 1.75, L 2.07, K 2.06, S 1.94, E 1.89, W 1.67, D 1.79, N 1.97, T 1.81
K37: R 2.37, G 1.43, T 2.4, D 1.93, L 2.75, Q 2.04, A 1.92, P 0.399, V 2.44, I 2.56, F 2.11, E 2.49, N 2.35, M 2.23, H 2, S 1.85, W 2.3, Y 2.08
V43: E 2.08, I 2.31, W 2.45, C 2.36, R 2.75, K 2.59, Y 2.38, Q 2.26, H 2.45, L 2.79, D 1.69, M 2.48, P 1.84, G 1.84, S 2.21, A 2.38, F 2.5, N 1.86, T 1.88

Variants of: B2
Experiment: as above
Conditions: PBS, room temperature

Folding stability dG [kcal/mol]: each site, then its substitutions
V2: T 4.19, S 4.13, Q 4.45, M 4.45, R 4.21, C 4.51, K 4.33, L 4.27, P 4.16, A 4.3, D 4.1, E 4.13, F 4.68, G 4.48, N 4.22, W 4.56, H 4.34, Y 4.53, I 4.15
K8: P 4.21, G 4.05, I 4.12, M 4.48, L 4.31, S 4.1, R 4.62, V 4.34, Q 4.14, W 4.83, H 4.25, N 4.08, D 3.72, T 4.33, E 3.87, C 4.15, A 4.09, F 4.53, Y 4.61
I7: S 3.87, G 4.36, P 2.3, F 4.53, L 4.64, D 1.65, E 2.11, Y 4.82, M 4.39, N 2.98, Q 3.21, V 4.44, C 4.31, T 4.09, W 4.97, K 2.77, H 3.18, A 4.69, R 3.04
E4: L 4.56, W 4.66, N 4.35, S 4.54, G 4.3, A 4.69, Q 4.79, R 4.58, D 4.4, C 4.76, P 4.4, I 4.54, K 4.51, Y 4.64, F 4.76, V 4.58, H 4.42, M 4.72
E1: A 4.45, L 4.31, Y 4.34, R 3.94, S 4.32, V 4.06, F 4.33, P 4.22, I 4.29, H 4.08, W 4.18, D 4.2, C 4.27, Q 4.25, N 4.33, T 4.26, K 4, G 4.57, M 4.3
L5: F 4.91, N 3.85, K 4.38, A 4.37, S 3.94, T 4.04, I 4.26, P 2.55, M 4.49, R 4.4, G 4.02, C 4.29, V 4.29, E 3.72, D 2, H 4.34, Q 4.28
I3: E 4.3, G 4.47, Q 4.76, F 4.97, R 4.61, V 4.58, L 4.63, N 4.76, Y 4.7, M 4.63, H 4.7, C 4.46, P 4.46, W 4.71, S 4.71, K 4.76, A 4.54, T 4.67, D 4.52
K6: P 3.96, I 4.47, F 4.76, M 4.43, L 4.32, E 3.75, T 4.34, S 4.26, G 4.02, H 4.48, C 4.34, V 4.37, D 3.67, W 4.94, N 4.39, Y 4.77, A 4.22, Q 4.17, R 4.73
F9: E 2.48, C 4.19, G 3.9, A 4.06, D 3.45, H 4.19
